According to US20050069542A1 (Human Genome Sciences, published 2005):
One block for each binder: values may come before it.

Biological target: T1, flag-tagged soluble TL3 (amino acids 105-251 of SEQ ID NO:234) (Homo sapiens (Human), UniProt O75888 105-250)
T1 construct: Heterologous flag-tagged control protein, immobilized in the ELISA; also called flagged tagged TL-3; not shown: Flag tag
T1 sequence: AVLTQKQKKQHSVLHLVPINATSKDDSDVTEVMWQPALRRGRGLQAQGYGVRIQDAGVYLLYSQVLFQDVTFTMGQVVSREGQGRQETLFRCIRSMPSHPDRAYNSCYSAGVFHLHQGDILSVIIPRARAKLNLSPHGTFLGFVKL
Assay: phage ELISA on immobilized flag-tagged soluble TL3
Summary of the method: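 Phage displaying scFvs selected against flag-tagged GMAD were screened by ELISA against immobilized flag-tagged soluble TL3 (residues 105-251) as a heterologous flag-tagged counter-target, to check that binding is GMAD-specific.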

binding result: no binding
B1: GMCC138 (scFv)
scFv: EVQLVETGPGLVKPSQTLSLTCTVSGGSISSGGYYWSWIRQVPGKGLEWIGYNFYNGSTYFNPSLKSRATISIDTTKNQFSLKLSSVTAADTAVYYCARGNGYRYGRWFDPWGRGTLVTVSSGGGGSGGGGSGGGGSALSYELTQPPSVSVSPGQTARITCSGDALPKQYAYWYQQKPGQAPVLVISKDSERPSGIPERFSGSSSGTTVTLTISGVQAEDEADYYCQSADSSGTYWVFGGGTKVTVLG

binding result: no binding
B2: GMCC142 (scFv)
scFv: EVQLVQSGAEVKKPGASVTISCKASGYTFTAYYIYWVRQAPGQGLEWMGMSNPNGGYTVYPPNFLGRVTTTPDTSTNTIYMELRSLRSEDTAVYYCARGRGRAPSNAFDFWGRGTLVTVSSGGGGSGGGGSGGGGSALSSELTQDPAVSVALGQTVRITCQGDSLKFYYASWYQQKPGQAPVLVLHGKNNRPSGIPDRFSGSTSRDTASLTITGTQAEDEADYYCNSRDNSDNIVFGTGTKLTVLG
